In this test the target is recombinant SARS-CoV-2 wildtype Wuhan-Hu-1 S ectodomain trimer (SARS-CoV-2, Wuhan-Hu-1, UniProt P0DTC2). The test is described as follows: ELISA. The conditions noted are these: both partners purified. For orientation: ELISA stands for enzyme-linked immunosorbent assay.

B1: S2X303 mAb (antibody, V domains shown)
VH: QITLKESGPTLVKPTQTLTLTCKLSGFSVNTGGVGVGWIRQPPGKALEWLALIYWNDDKLYSPSLKSRLTVTKDTSKNQVVLTMTNMDPVDTATYYCAHVLVWFGEVLPDAFDVWGQGTMVTVSS
VL: SYELTQPPSVSVSPGQTASITCSGDKLGETYASWYQQKPGQSPILVIYQDNKRPSGIPERFSGSNSENTATLTISGTQTMDEADYYCQAWDKTIAGFGGGTKLTV
notes: copies: 2 + 2
B1: the binding result is listed as “binds”.

B2: S2L20 mAb (antibody, V domains shown)
VH: EVQLVESGGGVVQPGGSLRLSCAASGFTFNSYGMHWVRQAPGKGLEWVAFIRYDGGNKYYADSVKGRFTISRDNSKNTLYLQMKSLRAEDTAVYYCANLKDSRYSGSYYDYWGQGTLVTVS
VL: not shown
notes: copies: 2 + 2
In the case of B2, the binding result is reported as “binds”.

The record behind these values is article PMC12240541 (Science (New York, N.Y.), 2021).
